The series addresses BMAL1 acetylated at Lys537 (ectopically expressed together with CLOCK), Q9WTL8.

BMAL1 acetylated at Lys537 (ectopically expressed together with CLOCK), Q9WTL8, sequence (Q9WTL8 other isoform, or with tags, fused parts or gaps): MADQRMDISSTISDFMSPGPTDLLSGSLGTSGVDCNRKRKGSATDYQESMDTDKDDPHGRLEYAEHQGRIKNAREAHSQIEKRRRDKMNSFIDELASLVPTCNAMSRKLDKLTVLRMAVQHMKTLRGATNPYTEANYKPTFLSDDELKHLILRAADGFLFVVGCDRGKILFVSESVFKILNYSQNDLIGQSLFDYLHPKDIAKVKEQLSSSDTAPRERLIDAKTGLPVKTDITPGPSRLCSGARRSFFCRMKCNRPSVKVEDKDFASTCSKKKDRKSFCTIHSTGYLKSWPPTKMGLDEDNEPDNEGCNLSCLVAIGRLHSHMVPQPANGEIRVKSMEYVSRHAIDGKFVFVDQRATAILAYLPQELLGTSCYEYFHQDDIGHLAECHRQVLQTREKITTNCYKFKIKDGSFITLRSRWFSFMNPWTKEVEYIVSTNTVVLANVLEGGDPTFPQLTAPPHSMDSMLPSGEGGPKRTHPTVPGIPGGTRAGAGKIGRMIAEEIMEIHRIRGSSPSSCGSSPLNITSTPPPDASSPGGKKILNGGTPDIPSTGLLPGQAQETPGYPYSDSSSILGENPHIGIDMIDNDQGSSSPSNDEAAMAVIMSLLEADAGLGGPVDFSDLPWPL

B1: Recombinant SIRT1 of the SIRT1 Fluorimetric Activity Assay/Drug Discovery Kit (AK-555; BIOMOL International) (protein)
chain: MADEAALALQPGGSPSAAGADREAASSPAGEPLRKRPRRDGPGLERSPGEPGGAAPEREVPAAARGCPGAAAAALWREAEAEAAAAGGEQEAQATAAAGEGDNGPGLQGPSREPPLADNLYDEDDDDEGEEEEEAAAAAIGYRDNLLFGDEIITNGFHSCESDEEDRASHASSSDWTPRPRIGPYTFVQQHLMIGTDPRTILKDLLPETIPPPELDDMTLWQIVINILSEPPKRKKRKDINTIEDAVKLLQECKKIIVLTGAGVSVSCGIPDFRSRDGIYARLAVDFPDLPDPQAMFDIEYFRKDPRPFFKFAKEIYPGQFQPSLCHKFIALSDKEGKLLRNYTQNIDTLEQVAGIQRIIQCHGSFATASCLICKYKVDCEAVRGDIFNQVVPRCPRCPADEPLAIMKPEIVFFGENLPEQFHRAMKYDKDEVDLLIVIGSSLKVRPVALIPSSIPHEVPQILINREPLPHLHFDVELLGDCDVIINELCHRLGGEYAKLCCNPVKLSEITEKPPRTQKELAYLSELPPTPLHVSEDSSSPERTSPPDSSVIVTLLDQAAKSNDDLDVSESKGCMEEKPQEVQTSRNVESIAEQMENPDLKNVGSSTGEKNERTSVAGTVRKCWPNRVAKEQISRRLDGNQYLFLPPNRYIFHGAEVYSDSEDDVLSSSSCGSNSDSGTCQSPSLEEPMEDESEIEEFYNGLEDEPDVPERAGGAGFGTDGDDQEAINEAISVKQEVTDMNYPSNKS
Regarding B1, the “in vitro deacetylation assay (immunoprecipitated Ac-BMAL1 with recombinant SIRT1, 5 mM NAD+ or 10 mM NAM, 90 min at 37 C; Western with Ac-BMAL1 antibody)” value is “SIRT1 readily deacetylates BMAL1 in an in vitro deacetylation assay”.
